Columns and labels:
Experiment in all cases: ELISA, lectin-captured E1E2 lysate, Ab 1 ug/ml
[1] = target: E1E2 complex (H77) with E2 mutation A642G (HCV genotype 1a, isolate H77) (UniProt P27958)
[2] = target: E1E2 complex (H77) with E1 mutation M324A (HCV genotype 1a, isolate H77) (UniProt P27958)
[3] = target: E1E2 complex (H77) with E1 mutation R317A (HCV genotype 1a, isolate H77) (UniProt P27958)
[4] = target: E1E2 complex (H77) with E2 mutation T435A (HCV genotype 1a, isolate H77) (UniProt P27958)
[5] = target: E1E2 complex (H77) with E1 mutation G278A (HCV genotype 1a, isolate H77) (UniProt P27958)
[6] = target: E1E2 complex (H77) with E2 mutation R630A (HCV genotype 1a, isolate H77) (UniProt P27958)
[7] = target: E1E2 complex (H77) with E1 mutation H352A (HCV genotype 1a, isolate H77) (UniProt P27958)
[8] = target: E1E2 complex (H77) with E1 mutation S294A (HCV genotype 1a, isolate H77) (UniProt P27958)
[9] = target: E1E2 complex (H77) with E2 mutation T621A (HCV genotype 1a, isolate H77) (UniProt P27958)
[10] = target: E1E2 complex (H77) with E1 mutation M322A (HCV genotype 1a, isolate H77) (UniProt P27958)
[11] = target: E1E2 complex (H77) with E1 mutation G225A (HCV genotype 1a, isolate H77) (UniProt P27958)
[12] = target: E1E2 complex (H77) with E1 mutation I212A (HCV genotype 1a, isolate H77) (UniProt P27958)
[13] = target: E1E2 complex (H77) with E1 mutation P328A (HCV genotype 1a, isolate H77) (UniProt P27958)
[14] = target: E1E2 complex (H77) with E2 mutation A643G (HCV genotype 1a, isolate H77) (UniProt P27958)
[15] = target: E1E2 complex (H77) with E1 mutation P224A (HCV genotype 1a, isolate H77) (UniProt P27958)
[16] = target: E1E2 complex (H77) with E1 mutation A274G (HCV genotype 1a, isolate H77) (UniProt P27958)
[17] = target: E1E2 complex (H77) with E1 mutation G315A (HCV genotype 1a, isolate H77) (UniProt P27958)
[18] = target: E1E2 complex (H77) with E1 mutation V227A (HCV genotype 1a, isolate H77) (UniProt P27958)
[19] = target: E1E2 complex (H77) with E1 mutation R195A (HCV genotype 1a, isolate H77) (UniProt P27958)
[20] = target: E1E2 complex (H77) with E1 mutation R339A (HCV genotype 1a, isolate H77) (UniProt P27958)
[21] = target: E1E2 complex (H77) with E2 mutation P619A (HCV genotype 1a, isolate H77) (UniProt P27958)
[22] = target: E1E2 complex (H77) with E2 mutation Y624A (HCV genotype 1a, isolate H77) (UniProt P27958)
[23] = target: E1E2 complex (H77) with E2 mutation N448A (HCV genotype 1a, isolate H77) (UniProt P27958)
[24] = target: E1E2 complex (H77) with E1 mutation A319G (HCV genotype 1a, isolate H77) (UniProt P27958)
[25] = target: E1E2 complex (H77) with E1 mutation F293A (HCV genotype 1a, isolate H77) (UniProt P27958)
[26] = target: E1E2 complex (H77) with E1 mutation Y192A (HCV genotype 1a, isolate H77) (UniProt P27958)
[27] = target: E1E2 complex (H77) with E1 mutation F291A (HCV genotype 1a, isolate H77) (UniProt P27958)
[28] = target: E1E2 complex (H77) with E1 mutation M318A (HCV genotype 1a, isolate H77) (UniProt P27958)
[29] = target: E1E2 complex (H77) with E1 mutation M323A (HCV genotype 1a, isolate H77) (UniProt P27958)

mouse anti-E1 MAb A4 (antibody)
Binding relative to wt (%) [1]: 137% | Binding relative to wt (%) [2]: 80% | Binding relative to wt (%) [3]: 95% | Binding relative to wt (%) [4]: 117% | Binding relative to wt (%) [5]: 58% | Binding relative to wt (%) [6]: 106% | Binding relative to wt (%) [7]: 85% | Binding relative to wt (%) [8]: 99% | Binding relative to wt (%) [9]: 114% | Binding relative to wt (%) [10]: 115% | Binding relative to wt (%) [11]: 106% | Binding relative to wt (%) [12]: 125% | Binding relative to wt (%) [13]: 123% | Binding relative to wt (%) [14]: 131% | Binding relative to wt (%) [15]: 99% | Binding relative to wt (%) [16]: 53% | Binding relative to wt (%) [17]: 91% | Binding relative to wt (%) [18]: 150% | Binding relative to wt (%) [19]: 197% | Binding relative to wt (%) [20]: 87% | Binding relative to wt (%) [21]: 108% | Binding relative to wt (%) [22]: 121% | Binding relative to wt (%) [23]: 97% | Binding relative to wt (%) [24]: 101% | Binding relative to wt (%) [25]: 87% | Binding relative to wt (%) [26]: 134% | Binding relative to wt (%) [27]: 67% | Binding relative to wt (%) [28]: 97% | Binding relative to wt (%) [29]: 69%
